In patent US20230080842A1 (WUHAN YZY BIOPHARMA, published 2023):

B1: Y116-B2 (bispecific antibody)
light: DIQMTQSPSSLSASVGDRVTITCKASQDVGIAVAWYQQKPGKVPKLLIYWASTRHTGVPDRFSGSGSGTDFTLTISSLQPEDVATYYCQQYSSYPYTFGQGTKVEIKRTVAAPSVFIFPPSDEQLKSGTASVVCLLNNFYPREAKVQWKVDNALQSGNSQESVTEQDSKDSTYSLSSTLTLSKADYEKHKVYACEVTHQGLSSPVTKSFNRGECGGGGSEAAAKGGGGSEVQLVESGGGVVRPGGSLRLSCAASGFTFDDYGMSWVRQAPGKGLEWVSGINWNGGSTGYADSVKGRFTISRDNAKNSLYLQMNSLRAEDTAVYYCARGRSLLFDYWGQGTLVTVSR
heavy: EVQLVESGGGLVQPGGSLRLSCAASGFDFSRYWMSWVRQAPGKGLEWIGEINPDSSTINYAPSLKDKFIISRDNAKNSLYLQMNSLRAEDTAVYYCARPDGNYWYFDVWGQGTLVTVSSASTKGPSVFPLAPSSKSTSGGTAALGCLVKDYFPEPVTVSWNSGALTSGVHTFPAVLQSSGLYSLSSVVTVPSSSLGTQTYICNVNHKPSNTKVDKKVEPKSCGGGGSEAAAKGGGGSSELTQDPAVSVALGQTVRITCQGDSLRSYYASWYQQKPGQAPVLVIYGKNNRPSGIPDRFSGSSSGNTASLTITGAQAEDEADYYCNSRDSSGNHVVFGGGTKLTVLGYPGGGGSDKTHTCPPCPAPPVAGPSVFLFPPKPKDTLMISRTPEVTCVVVDVSHEAPEVQFNWYVDGVEVHNAKTKPREEQFNSTFRVVSVLTVVHQDWLNGKEYKCKVSNKGLPAPIEKTISKTKGQPREPQVYTLPPSRDELTKNQVSLTCLVKGFYPSDIAVEWESNGQPENNYKTTPPVLDSDGSFFLYSKLTVDKSRWQQGNVFSCSVMHEALHNHYTQKSLSLSPGK
B2: Y116-B1 (bispecific antibody)
light: DIQMTQSPSSLSASVGDRVTITCKASQDVGIAVAWYQQKPGKVPKLLIYWASTRHTGVPDRFSGSGSGTDFTLTISSLQPEDVATYYCQQYSSYPYTFGQGTKVEIKRTVAAPSVFIFPPSDEQLKSGTASVVCLLNNFYPREAKVQWKVDNALQSGNSQESVTEQDSKDSTYSLSSTLTLSKADYEKHKVYACEVTHQGLSSPVTKSFNRGECGAAAGGGGSGGGGSGGGGSEVQLVESGGGVVRPGGSLRLSCAASGFTFDDYGMSWVRQAPGKGLEWVSGINWNGGSTGYADSVKGRFTISRDNAKNSLYLQMNSLRAEDTAVYYCARGRSLLFDYWGQGTLVTVSR
heavy: EVQLVESGGGLVQPGGSLRLSCAASGFDFSRYWMSWVRQAPGKGLEWIGEINPDSSTINYAPSLKDKFIISRDNAKNSLYLQMNSLRAEDTAVYYCARPDGNYWYFDVWGQGTLVTVSSASTKGPSVFPLAPSSKSTSGGTAALGCLVKDYFPEPVTVSWNSGALTSGVHTFPAVLQSSGLYSLSSVVTVPSSSLGTQTYICNVNHKPSNTKVDKKVEPKSCGAAAGGGGSGGGGSSELTQDPAVSVALGQTVRITCQGDSLRSYYASWYQQKPGQAPVLVIYGKNNRPSGIPDRFSGSSSGNTASLTITGAQAEDEADYYCNSRDSSGNHVVFGGGTKLTVLGYPGGGGSDKTHTCPPCPAPPVAGPSVFLFPPKPKDTLMISRTPEVTCVVVDVSHEAPEVQFNWYVDGVEVHNAKTKPREEQFNSTFRVVSVLTVVHQDWLNGKEYKCKVSNKGLPAPIEKTISKTKGQPREPQVYTLPPSRDELTKNQVSLTCLVKGFYPSDIAVEWESNGQPENNYKTTPPVLDSDGSFFLYSKLTVDKSRWQQGNVFSCSVMHEALHNHYTQKSLSLSPGK

Molecular target: T1, Human SLAMF7 (human, UniProt Q9NQ25 23-226)
T1 construct: also called SLAMF7 antigen; not shown: His tag
Test: ELISA, plate coated with His-tagged antigen
Protocol: 2) addition of antibody: according to the experimental design, operation was performed at room temperature, and the antibody was diluted in gradient with 1% BSA in PBS. […] The diluted antibody was added into wells of microtiter plate at 200 μl/well, incubated at room temperature for 2h, and then the supernatant was discarded;

Binder | EC50 [nM]
B1 | 0.648
B2 | 0.636
